Assay results reported in paper doi:10.1101/2021.10.20.465124v1.

Substrate: COc1cc2ccc(=O)oc2cc1O[C@@H]1O[C@H](CO)[C@@H](O)[C@H](O)[C@H]1O
Test: glucose release, D-Glucose HK assay, substrate inhibition fit
Type: biochemical, Streptomyces scabiei
Conditions: HEPES 50 mM pH 7.5, 40 °C, 4 min, substrate inhibition model

B1: His6-BglC (Streptomyces scabiei 87.22) (protein)
chain: MPEPVNPATPVTFPPAFLWGAATSAYQIEGAVREDGRTPSIWDTFSHTPGKTAGGENGDIAVDHYHRYRDDVAMMADLGLNAYRFSVSWSRVQPTGRGPAVQKGLDFYRRLVDELLAKGIKPAVTLYHWDLPQELEDAGGWPERDIVHRFAEYARIMGEALGDRVEQWITLNEPWCTAFLGYGSGVHAPGRTDPVASLRAAHHLNVAHGLGVSALRSAMPARNSIAVSLNSSVVRPITSSPEDRAAARKIDDLANGVFHGPMLHGAYPETLFAATSSLTDWSFVRDGDVATAHQPLDALGLNYYTPALVGAADAGLEGPRADGHGASEHSPWPAADDVLFHQTPGERTEMGWTIDPTGLHELIMRYAREAPGLPMYVTENGAAYDDKMDADGRVHDPERIAYLHGHLRAVRRAIAEGADVRGYYLWSLMDNFEWAYGYGKRFGAVYVDYATLTRTPKSSAHWYGQAAKTGALPPLAPAPA
Km: 300 µM
kcat: 9.4 s⁻¹
